Legend:
C-reactive protein (CRP) [1] = biological target: T1, C-reactive protein (CRP) (Homo sapiens, UniProt P02741); assay: Affinity measurements by surface plasmon resonance (Biacore T100, CRP immobilized on CM5 chip); format: binding; conditions: CRP immobilized approx. 5000 RU; peptide 5 micromolar down to 2 nM; 25° C.; FIG. 8A
T1 sequence (P02741 19-224): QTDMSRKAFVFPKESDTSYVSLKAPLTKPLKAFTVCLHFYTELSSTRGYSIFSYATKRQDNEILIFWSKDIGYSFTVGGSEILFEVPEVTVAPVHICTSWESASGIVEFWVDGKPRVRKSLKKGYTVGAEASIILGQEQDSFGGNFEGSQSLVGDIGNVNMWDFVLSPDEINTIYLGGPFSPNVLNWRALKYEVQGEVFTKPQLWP
Protocol: Affinity measurements. Affinity measurements were performed using a Biacore T100 system and research grade CM5 sensor chips (GE Heathcare). The instrument was primed with HBS-EP+ (GE Heathcare) buffer. Flow cell 1 (or 3) was used as a reference to subtract nonspecific binding, drift, and the bulk refractive index, while flow cell 2 (or 4) was immobilized with CRP following standard procedures. A 1:1 mixture of 0.4 M EDC and 0.1 M NHS was used to activate flow cell 2 (or 4), and 0.1 mg/mL CRP solution was injected. Blocking of the remaining activated groups was done with a 1 M solution of ethanolamine (pH 8.5). CRP was immobilized onto the sensor chip surface by approximately 5000 response units (RU). The instrument was then primed using running buffer (HBS-EP+). Each of the 6-mer ligand candidates identified were dissolved in HBS-EP+ buffer to produce 5 micromolar peptide stock solutions for each peptide, which were serially diluted by a factor of 2 to produce a concentration series down to 2 nM. For a given affinity measurement, these series of peptide solutions successively were injected into flow cell 2 (or 4) for 3 min of contact time, 5 min of dissociation time, and 3.5 min of stabilization time using a flow rate of 100 microliter/min at 25° C. Flow cell 2 (or 4) was regenerated by glycine 2.5 (GE Healthcare) after injection of each peptide solution.

C-reactive protein (CRP) [2] = biological target: T1, C-reactive protein (CRP); assay: Dot blot selectivity/sensitivity assay with biotinylated 6-mer peptides; format: binding; conditions: biotinylated 6-mer at 1 micromolar in 5% nonfat milk/TBS-T; CRP 20 micrograms to 2 ng per spot; FIG. 8B
Protocol: Dot blot selectivity/sensitivity assays in serum. […] CRP solution was prepared as 10 mg/mL stocks in PBS buffer (pH 7.4). A dilution series of CRP solution was applied to a nitrocellulose membrane, typically ranging from 20 micrograms to 2 ng per spot. The membrane was blocked at room temperature for 2 h in 5% nonfat milk/TBS-T. The membrane was then washed with TBS-T. The biotinylated 6-mer solution was prepared at 1 micromolar in 5% nonfat milk/TBS-T and incubated over the membrane for 2 h at room temperature. After washing three times with TBS-T for 10 min, 1:3000 streptavidin-HRP (Abeam) prepared in 0.5% milk/TBS-T was added to the membrane and incubated for 2 h. After washing three times with TBS-T for 10 min, the membrane was treated with chemiluminescent reagents (Amersham ECL plus Western blotting detection reagents, GE Healthcare) and then immediately developed on film.

Substance: LYFRRW (Synthetic Peptide Fragment) [6-mer CRP ligand candidate from focused library B screening]
- binding affinity to CRP / response in SPR (C-reactive protein (CRP) [1]): highest response
- binding affinity to CRP / response in dot blot (C-reactive protein (CRP) [2]): highest response

Substance: WKFRYK (Synthetic Peptide Fragment) [6-mer CRP ligand candidate from focused library A screening]
- binding affinity to CRP / response in SPR (C-reactive protein (CRP) [1]): highest response
- binding affinity to CRP / response in dot blot (C-reactive protein (CRP) [2]): highest response

Reference: patent US20130267423A1, “PEPTIDE LIBRARIES FOR SCREENING AND OTHER APPLICATIONS” (priority 2010, published 2013)
